First the molecules themselves.
B1: Endonuclease CUE2, residues 9 to 47; numbered along this chain, P36075 (parent)
chain: HESKLSILMDMFPAISKSKLQVHLLENNNDLDLTIGLLL

± gives the uncertainty stated by the source.

In the data set the parent is B1. Nature of the data set: abundance fitness (aPCA) (normalised: wild type 0, dead -1); higher = more abundant; growth selection in yeast, the domain comes from the species named. The note with it: Saccharomyces cerevisiae (strain ATCC 204508 / S288c).
For the variant HESKLSILMDMFPAISKSKLQVHLLENNNDLDITIGLLL [L33I], the abundance fitness was -0.089 ± 0.062. As to HESKLSILMDMFPAISKSKLQVHLLENNNDLDWTIGLLL [L33W], the abundance fitness is -0.4 ± 0.051.

For HESKLSILMDMFPAISKSKLQVHLLENNNDLDSTIGLLL [L33S], the abundance fitness was -0.034 ± 0.045. The result for HESKLSILMDMFPAISKSKLQVHLLENNNDLDQTIGLLL [L33Q] reads -0.068 ± 0.062. The result for HESKLSILMDMFPAISKSKLQVHLLENNNDLDMTIGLLL [L33M] reads -0.001 ± 0.046; that for HESKLSILMDMFPAISKSKLQVHLLENNNDLDYTIGLLL [L33Y], -0.004 ± 0.047; that for HESKLSILMDMFPAISKSKLQVHLLENNNDLDVTIGLLL [L33V], 0.03 ± 0.035. The result for HESKLSILMDMFPAISKSKLQVHLLENNNDLDHTIGLLL [L33H] reads -0.456 ± 0.23; that for HESKLSILMDMFPAISKSKLQVHLLENNNDLDKTIGLLL [L33K], 0.036 ± 0.061. As for HESKLSILMDMFPAISKSKLQVHLLENDNDLDLTIGLLL [N28D], the abundance fitness came to 0.022 ± 0.12.

As for HESKLSILMDMFPAISKSKLQVHLLENCNDLDLTIGLLL [N28C], the abundance fitness is -0.329 ± 0.15. The result for HESKLSILMDMFPAISKSKLQVHLLENSNDLDLTIGLLL [N28S] reads 0.035 ± 0.049; that for HESKLSILMDMFPAISKSKLQVHLLENTNDLDLTIGLLL [N28T], -0.353 ± 0.078; that for HESKLSILMDMFPAISKSKLQVHLLENHNDLDLTIGLLL [N28H], -0.148 ± 0.18. The result for HESKLSILMDMFPAISKSKLQVHLLENKNDLDLTIGLLL [N28K] reads 0.104 ± 0.066. The result for HESKLSILMDMFPAISKSKLQVHLLENANDLDLTIGLLL [N28A] reads -0.024 ± 0.039. For HESKLSILMDMFPAISKSKLQVHLLENENDLDLTIGLLL [N28E], the abundance fitness worked out at 0.018 ± 0.039. The result for HESKLSILMDMFPAISKSKLQVHLLENVNDLDLTIGLLL [N28V] reads -0.469 ± 0.056. The result for HESKLSILMDMFPAISKSKLQVHLLENPNDLDLTIGLLL [N28P] reads -0.68 ± 0.11.

Regarding HESKLSILMDMFPAISKSKLQVHLLENMNDLDLTIGLLL [N28M], the abundance fitness is -0.045 ± 0.062. The result for HESKLSILMDMFPAISKSKLQVHLLENQNDLDLTIGLLL [N28Q] reads -0.053 ± 0.061; that for HESKLSILMDMFPAISKSKLQVHLLENWNDLDLTIGLLL [N28W], -0.485 ± 0.092; that for HESKLSILMDMFPAISKSKLQVHLLENGNDLDLTIGLLL [N28G], 0.025 ± 0.031. The result for HESKLSILMDMFPAISKSKLQVHLLENRNDLDLTIGLLL [N28R] reads -0.085 ± 0.034; that for HESKLSILMDMFPAISKSKLQVHLLENNNDLDLTCGLLL [I35C], -0.114 ± 0.044. The result for HESKLSILMDMFPAISKSKLQVHLLENNNDLDLTAGLLL [I35A] reads -0.04 ± 0.043.

Regarding HESKLSILMDMFPAISKSKLQVHLLENNNDLDLTHGLLL [I35H], the abundance fitness is -0.371 ± 0.12. The result for HESKLSILMDMFPAISKSKLQVHLLENNNDLDLTGGLLL [I35G] reads -0.596 ± 0.044; that for HESKLSILMDMFPAISKSKLQVHLLENNNDLDLTLGLLL [I35L], -0.165 ± 0.036. The result for HESKLSILMDMFPAISKSKLQVHLLENNNDLDLTKGLLL [I35K] reads 0.07 ± 0.048; that for HESKLSILMDMFPAISKSKLQVHLLENNNDLDLTDGLLL [I35D], -0.78 ± 0.11. As to HESKLSILMDMFPAISKSKLQVHLLENNNDLDLTFGLLL [I35F], the abundance fitness was -0.75 ± 0.18. The result for HESKLSILMDMFPAISKSKLQVHLLENNVDLDLTIGLLL [N29V] reads -0.262 ± 0.051; that for HESKLSILMDMFPAISKSKLQVHLLENNSDLDLTIGLLL [N29S], -0.065 ± 0.05; that for HESKLSILMDMFPAISKSKLQVHLLENNCDLDLTIGLLL [N29C], 0.052 ± 0.057. For the variant HESKLSILMDMFPAISKSKLQVHLLENNTDLDLTIGLLL [N29T], the abundance fitness is -0.402 ± 0.088. The result for HESKLSILMDMFPAISKSKLQVHLLENNWDLDLTIGLLL [N29W] reads 0.039 ± 0.038; that for HESKLSILMDMFPAISKSKLQVHLLENNKDLDLTIGLLL [N29K], -0.364 ± 0.076; that for HESKLSILMDMFPAISKSKLQVHLLENNFDLDLTIGLLL [N29F], -0.059 ± 0.3. The result for HESKLSILMDMFPAISKSKLQVHLLENNMDLDLTIGLLL [N29M] reads -0.008 ± 0.063; that for HESKLSILMDMFPAISKSKLQVHLLENNPDLDLTIGLLL [N29P], -0.324 ± 0.088; that for HESKLSILMDMFPAISKSKLQVHLLENNQDLDLTIGLLL [N29Q], 0.037 ± 0.082. The result for HESKLSILMDMFPAISKSKLQVHLLENNADLDLTIGLLL [N29A] reads -0.086 ± 0.041; that for HESKLSILMDMFPAISKSKLQVHLLENNDDLDLTIGLLL [N29D], -0.082 ± 0.11. Regarding HESKLSILMDMFPAISKSKLQVHLLENNLDLDLTIGLLL [N29L], the abundance fitness is -0.112 ± 0.058.

For the variant HESKLSILMDMFPAISKSKLQVHLLENNHDLDLTIGLLL [N29H], the abundance fitness was -0.117 ± 0.14. In the case of HESKLSILMDMFPAISKSKLQVHLLENNRDLDLTIGLLL [N29R], the abundance fitness is -0.222 ± 0.035. The result for HESKLSILMDMFPAISKSKLQVHLLENNNDMDLTIGLLL [L31M] reads -0.211 ± 0.099. In the case of HESKLSILMDMFPAISKSKLQVHLLENNNDTDLTIGLLL [L31T], the abundance fitness was -0.35 ± 0.046. The result for HESKLSILMDMFPAISKSKLQVHLLENNNDSDLTIGLLL [L31S] reads -0.816 ± 0.093; that for HESKLSILMDMFPAISKSKLQVHLLENNNDVDLTIGLLL [L31V], 0.136 ± 0.033. The result for HESKLSILMDMFPAISKSKLQVHLLENNNDHDLTIGLLL [L31H] reads -0.676 ± 0.27.

Turning to HESKLSILMDMFPAISKSKLQVHLLENNNDRDLTIGLLL [L31R], the abundance fitness is -0.841 ± 0.072. The result for HESKLSILMDMFPAISKSKLQVHLLENNNDEDLTIGLLL [L31E] reads -0.633 ± 0.11; that for HESKLSILMDMFPAISKSKLQVHLLENNNDPDLTIGLLL [L31P], -1.01 ± 0.21. HESKLSILMDMFPAISKSKLQVHLLENNNDGDLTIGLLL [L31G]: the abundance fitness was -0.913 ± 0.084.

With HESKLSILMDMFPAISKSKLQVHLLENNNDIDLTIGLLL [L31I], the abundance fitness is -0.064 ± 0.17.

Turning to HESKLSILMDMFPAISKSKLQVHLLENNNDQDLTIGLLL [L31Q], the abundance fitness is -0.483 ± 0.077. The result for HESKLSILMDMFPAISKSKLQVHLLENNNDWDLTIGLLL [L31W] reads -0.694 ± 0.085; that for HESKLSILMDMFPAISKSKLQVHLLENNNDKDLTIGLLL [L31K], -0.752 ± 0.18; that for HESKLSILMDMFPAISKSKLQVHLLENNNDNDLTIGLLL [L31N], -0.881 ± 0.37. As to HESKLSILMDMFPAISKSKLQVHLLENNNDCDLTIGLLL [L31C], the abundance fitness is -0.388 ± 0.053. The result for HESKLSILMDMFPAISKSKLQVHLLVNNNDLDLTIGLLL [E26V] reads -0.257 ± 0.046; that for HESKLSILMDMFPAISKSKLQVHLLWNNNDLDLTIGLLL [E26W], -0.639 ± 0.071.

(Values after the Human Domainome abundance scans (Beltran et al. 2025).)
